Earlier results as cited in article PMC4512752.
Read-outs that look alike come from different tables or passages of the source.

Key:
Experiment in all cases: MALLS
[1] = molecular target: Arrestin-1 (Homo sapiens) (UniProt P10523)
[2] = molecular target: Arrestin-1 (Mus musculus) (UniProt P20443)
[3] = molecular target: Arrestin-2 (Bos taurus) (UniProt P17870)
[4] = molecular target: Arrestin-2 (Bos taurus) (UniProt P17870); remark: listed apart in the source
[5] = molecular target: Arrestin-3 (Bos taurus) (UniProt P32120)
[6] = molecular target: Arrestin-3 (Bos taurus) (UniProt P32120); remark: listed apart in the source

Arrestin-1 (from UniProt P10523)
Kd [1]: 2.95 µM

Arrestin-1 (from UniProt P20443)
Kd [2]: 57.5 µM

Arrestin-2 (from UniProt P17870)
Kd [3]: 5.5 µM | Kd [4]: 100 µM

Arrestin-3 (from UniProt P32120)
Kd [5]: 7.8 µM | Kd [6]: 100 µM
